Test [1] has as its target human AXL (full length, on cells) (human (Homo sapiens)) (UniProt P30530). Description: flow cytometry, A431 cells pre-incubated with 10 µg/mL Gas6 (competitor).
Test [2] shares this target. Description: flow cytometry, A431 cells pre-incubated with Gas6 (competitor); mean (s.d.); less accurate due to low binding.
The target is the same in test [3]. Put plainly: flow cytometry, A431 cells pre-incubated with Gas6 (competitor); mean (s.d.).
For test [4] the target is unchanged. Put plainly: flow cytometry, A431 cells pre-incubated with 10 µg/mL Gas6 (competitor); mean (s.d.).
The target is the same in test [5]. Description: flow cytometry, A431 cells, without Gas6; mean (s.d.).
Test [6] shares this target. Put plainly: flow cytometry, A431 cells pre-incubated with 10 µg/mL Gas6 (competitor); mean (s.d.); less accurate due to low binding.

Chain of human AXL (full length, on cells) (human (Homo sapiens)) (P30530 26-894 limits assumed): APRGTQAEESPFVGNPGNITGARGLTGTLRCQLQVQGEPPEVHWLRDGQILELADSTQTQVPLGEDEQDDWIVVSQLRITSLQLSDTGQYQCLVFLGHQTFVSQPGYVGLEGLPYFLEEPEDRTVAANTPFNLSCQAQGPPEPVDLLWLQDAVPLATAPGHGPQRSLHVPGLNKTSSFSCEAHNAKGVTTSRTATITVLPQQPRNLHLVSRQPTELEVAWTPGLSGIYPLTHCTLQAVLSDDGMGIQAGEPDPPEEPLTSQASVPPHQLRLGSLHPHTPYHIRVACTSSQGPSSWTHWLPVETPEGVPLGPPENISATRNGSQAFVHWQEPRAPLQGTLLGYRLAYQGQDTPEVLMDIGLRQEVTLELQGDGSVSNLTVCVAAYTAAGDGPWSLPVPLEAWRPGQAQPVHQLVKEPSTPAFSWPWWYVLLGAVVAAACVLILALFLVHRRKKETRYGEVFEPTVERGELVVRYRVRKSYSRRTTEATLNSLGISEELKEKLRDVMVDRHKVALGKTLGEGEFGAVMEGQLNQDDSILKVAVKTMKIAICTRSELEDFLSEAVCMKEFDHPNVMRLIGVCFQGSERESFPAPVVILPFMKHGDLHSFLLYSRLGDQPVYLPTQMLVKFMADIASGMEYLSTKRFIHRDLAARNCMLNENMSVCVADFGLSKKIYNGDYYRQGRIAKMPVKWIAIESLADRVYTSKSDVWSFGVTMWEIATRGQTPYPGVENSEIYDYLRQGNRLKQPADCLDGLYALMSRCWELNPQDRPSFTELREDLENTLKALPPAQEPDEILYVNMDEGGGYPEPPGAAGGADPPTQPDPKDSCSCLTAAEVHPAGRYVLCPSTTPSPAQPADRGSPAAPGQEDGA

B1: YW327.6S2 (antibody, from another filing, V domains shown)
VH: EVQLVESGGGLVQPGGSLRLSCAASGFSLSGSWIHWVRQAPGKGLEWVGWINPYRGYAYYADSVKGRFTISADTSKNTAYLQMNSLRAEDTAVYYCAREYSGWGGSSVGYAMDYWGQGTLVTVSS
VL: DIQMTQSPSSLSASVGDRVTITCRASQDVSTAVAWYQQKPGKAPKLLIYSASFLYSGVPSRFSGSGSGTDFTLTISSLQPEDFATYYCQQSYTTPPTFGQGTKVEIK
On to B1, for which, in test [1], the fold change of EC50 with Gas6 pre-incubation against without Gas6 is 21 fold. The maximal binding in presence of Gas6 (% of binding without Gas6) in test [1] was determined as 19%. Moreover, the EC50 in test [2] came to 1.9 µg/mL; in test [5] it was 0.09 µg/mL; in test [6], 1.9 µg/mL. For the same molecule, the maximal binding in presence of Gas6 (% of binding in absence of Gas6) in test [3] and in test [4] was 41% throughout.

Values taken from patent US20170157250A1.
